The values that follow come from article PMC3367397 (Nature, 2012).

The assay concerns the target T1, Angptl2-FLAG (human, UniProt Q9UKU9 23-493).
T1 sequence (looked up): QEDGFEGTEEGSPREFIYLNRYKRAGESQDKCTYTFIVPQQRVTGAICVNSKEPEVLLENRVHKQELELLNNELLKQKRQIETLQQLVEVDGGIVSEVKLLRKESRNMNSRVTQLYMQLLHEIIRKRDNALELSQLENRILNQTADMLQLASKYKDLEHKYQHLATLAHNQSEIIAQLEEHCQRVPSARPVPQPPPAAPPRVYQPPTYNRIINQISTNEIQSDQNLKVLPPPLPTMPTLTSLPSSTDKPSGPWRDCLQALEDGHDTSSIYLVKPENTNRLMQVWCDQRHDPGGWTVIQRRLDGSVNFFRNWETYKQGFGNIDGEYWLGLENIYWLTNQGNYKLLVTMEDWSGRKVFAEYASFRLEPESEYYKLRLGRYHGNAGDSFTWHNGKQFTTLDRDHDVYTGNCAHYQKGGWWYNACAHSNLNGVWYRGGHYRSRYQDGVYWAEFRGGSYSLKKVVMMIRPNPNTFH
In words: co-IP.

B1: LILRB2 extracellular domain (ECD) fused to human IgG-Fc (Fc fusion, UniProt Q8N423 22-460, looked up)
chain: QTGTIPKPTLWAEPDSVITQGSPVTLSCQGSLEAQEYRLYREKKSASWITRIRPELVKNGQFHIPSITWEHTGRYGCQYYSRARWSELSDPLVLVMTGAYPKPTLSAQPSPVVTSGGRVTLQCESQVAFGGFILCKEGEDEHPQCLNSQPHARGSSRAIFSVGPVSPNRRWSHRCYGYDLNSPYVWSSPSDLLELLVPGVSKKPSLSVQPGPVMAPGESLTLQCVSDVGYDRFVLYKEGERDLRQLPGRQPQAGLSQANFTLGPVSRSYGGQYRCYGAHNLSSECSAPSDPLDILITGQIRGTPFISVQPGPTVASGENVTLLCQSWRQFHTFLLTKAGAADAPLRLRSIHEYPKYQAEFPMSPVTSAHAGTYRCYGSLNSDPYLLSHPSEPLELVVSGPSMGSSPPPTGPISTPGPEDQPLTPTGSDPQSGLGRHLGV
With B1, the binding result is listed as “binds”.
